According to patent US20130102009A1, “SIRTUIN ACTIVATORS AND ACTIVATION ASSAYS” (priority 2010, published 2013):

Experiments:
Assay in all cases: Steady-state kinetic parameters for SIRT1 substrates (PNC1-GDH-coupled assay)
Assay type in all cases: biochemical, human
Conditions in all cases: other: 25° C., pH 7.5, [NAD+]o = 2 mM, [SIRT1]o 50-1,000 nM
[1] = substrate: CCCC[C@H](NC(=O)[C@H](CCCCNC(C)=O)NC(=O)[C@H](CO)NC(=O)[C@H](Cc1c[nH]cn1)NC(=O)[C@H](CO)NC(=O)[C@H](CO)NC(=O)[C@@H](NC(=O)[C@H](CO)NC(=O)[C@H](CCC(N)=O)NC(=O)CNC(=O)[C@H](CCCCNC(=O)CCCC[C@@H]1SC[C@@H]2NC(=O)N[C@@H]21)NC(=O)[C@H](CCC(=O)O)NC(=O)[C@H](CCC(=O)O)NC(C)=O)[C@@H](C)O)C(=O)N[C@@H](CO)C(=O)N[C@H](C(=O)N[C@@H](CCC(=O)O)C(=O)NCC(=O)N[C@@H](CCCCN)C(=O)N[C@@H](CCC(=O)O)C(=O)N[C@@H](CCC(=O)O)C(N)=O)[C@@H](C)O
Method: (§1) All peptides were prepared by BioPeptide (San Diego, Calif.) and shown to be at least 95% pure by analytical HPLC analysis. Bovine glutamate dehydrogenase (GDH), α-ketoglutarate, NADH and NAD^+ were from Sigma Chemical Company. Full-length, human SIRT1 and the truncated version used for biophysical studies SIRT1(183-664) were prepared as described previously, and shown to have equivalent kinetic properties (Milne et al. (2007) Nature 450, 712-716). The nicotinamidase PNC1 was prepared as described by Denu and colleagues (Smith et al. (2009) Anal Biochem 394, 101-109).
(§2) To determine the interaction of STACs with SIRT1 two kinetic methods were employed. One, which was used for TAMRA-peptide, desTAMRA-peptide, des(biotin,TAMRA)-peptide, and p53-20 mer, used a previously described mass spectroscopic method for detection of peptide reaction products (Milne et al. (2007) Nature 450, 712-716). The other, used with peptides of general structure Ac-Arg-His-Lys-Lys^Ac-X, used a continuous, enzyme-coupled method reported previously (Smith et al. (2009) Anal Biochem 394, 101-109), in which the SRT1 product nicotinamide is first converted into nicotinic acid and ammonia by the action of PNC1, and the ammonia then used by GDH to convert α-ketoglutarate into glutamate. This reaction occurs with oxidation of NADH to NAD^+ which is accompanied by a change in absorbance at 340 nm (Δε340=−6,200 M^−1 cm^−1).
(§3) The kinetic experiments used to characterize activators were run on a Perkin Elmer Lambda 25 spectrophotometer equipped with a water-jacketed, eight-cell changer maintained at 25° C. In a typical kinetic experiment, all components of the reaction solution except SIRT1 were added to a 1 mL cuvette and allowed to reach thermal equilibrium. Final concentrations of the coupling system components were: 1 μM PNC1, 0.23 mM NADH, 3.4 mM α-ketoglutarate, and 20 U/mL bovine GDH. This solution also contained peptide substrate, NAD^.0., and activator, at concentrations indicated in the text. The final DMSO concentration was kept constant at 1%, and the buffer used in these experiments was 50 mM HEPES, 150 mM NaCl, pH 7.5. While the system was reaching thermal equilibrium, the absorbance was monitored to provide an accurate estimate of the background rate, which was subtracted from the reaction rate after the addition of SIRT1.
(§4) The parameters reported in this table were all determined using the PNC1-GDH-coupled assay. Kinetic parameters for the four 20 mers were also estimated using the mass spectroscopy-based assay first described by Milne et al. ((2007) Nature 450, 712-716) and agree with those reported in Table 3.

[2] = substrate: CC(=O)NCCCC[C@H](NC(=O)[C@H](CCCCN)NC(=O)[C@H](Cc1c[nH]cn1)NC(=O)[C@H](CCCNC(=N)N)NC(C)=O)C(=O)N[C@@H](Cc1c[nH]c2ccccc12)C(N)=O
Method: as §1, §2, §3, §4

[3] = substrate: CC(=O)NCCCC[C@H](NC(=O)[C@H](CCCCN)NC(=O)[C@H](Cc1c[nH]cn1)NC(=O)[C@H](CCCNC(=N)N)NC(C)=O)C(=O)N[C@@H](C)C(N)=O
Method: as §1, §2, §3, §4

[4] = substrate: CC(=O)NCCCC[C@H](NC(=O)[C@H](CCCCN)NC(=O)[C@H](Cc1c[nH]cn1)NC(=O)[C@H](CCCNC(=N)N)NC(C)=O)C(N)=O
Method: as §1, §2, §3, §4

[5] = substrate: CC(=O)NCCCC[C@H](NC(=O)[C@H](CCCCN)NC(=O)[C@H](Cc1c[nH]cn1)NC(=O)[C@H](CCCNC(=N)N)NC(C)=O)C(=O)Nc1ccc2c(C)cc(=O)oc2c1
Method: as §1, §2, §3, §4

[6] = substrate: CC(=O)NCCCC[C@H](NC(=O)[C@H](CCCCN)NC(=O)[C@H](Cc1c[nH]cn1)NC(=O)[C@H](CCCNC(=N)N)NC(C)=O)C(=O)N[C@@H](Cc1ccccc1)C(N)=O
Method: as §1, §2, §3, §4

B1: SIRT1 (Homo sapiens) (protein)
chain: MADEAALALQPGGSPSAAGADREAASSPAGEPLRKRPRRDGPGLERSPGEPGGAAPEREVPAAARGCPGAAAAALWREAEAEAAAAGGEQEAQATAAAGEGDNGPGLQGPSREPPLADNLYDEDDDDEGEEEEEAAAAAIGYRDNLLFGDEIITNGFHSCESDEEDRASHASSSDWTPRPRIGPYTFVQQHLMIGTDPRTILKDLLPETIPPPELDDMTLWQIVINILSEPPKRKKRKDINTIEDAVKLLQECKKIIVLTGAGVSVSCGIPDFRSRDGIYARLAVDFPDLPDPQAMFDIEYFRKDPRPFFKFAKEIYPGQFQPSLCHKFIALSDKEGKLLRNYTQNIDTLEQVAGIQRIIQCHGSFATASCLICKYKVDCEAVRGDIFNQVVPRCPRCPADEPLAIMKPEIVFFGENLPEQFHRAMKYDKDEVDLLIVIGSSLKVRPVALIPSSIPHEVPQILINREPLPHLHFDVELLGDCDVIINELCHRLGGEYAKLCCNPVKLSEITEKPPRTQKELAYLSELPPTPLHVSEDSSSPERTSPPDSSVIVTLLDQAAKSNDDLDVSESKGCMEEKPQEVQTSRNVESIAEQMENPDLKNVGSSTGEKNERTSVAGTVRKCWPNRVAKEQISRRLDGNQYLFLPPNRYIFHGAEVYSDSEDDVLSSSSCGSNSDSGTCQSPSLEEPMEDESEIEEFYNGLEDEPDVPERAGGAGFGTDGDDQEAINEAISVKQEVTDMNYPSNKS
B1 showed a Km [1] of 33 µM, a Km [2] of 4.0 µM and a Km [3] of 13 µM. For the same protein, the Km [4] was 23 µM, the Km [5] was 110 µM and the Km [6] was 7.1 µM.
